Measured values: patent US12533321B2, “Polypeptide formulations for oral delivery” (Bhami's Research Laboratory, Pvt. Ltd., priority 2022, dated 2026)

Assays:
[1] = Pharmacokinetics of hGH in albumin crystal capsule (Vitamin E) vs IV, plasma hGH by ELISA; type: in vivo, Minipigs
From the text: The microparticle of albumin crystals containing hGH was then lyophilized after washing with cold isopropanol. […] The capsule was then closed.
(§1) Pigs in the oral treatment group was either fasted overnight or fed prior to the test sample administration. […] The time of dosage of each animal was noted. […] An antibody, anti-hGH was pre-coated onto a 96-well plate. […] The intensity of the yellow color is proportional to the hGH amount bound on the plate.

[2] = Pharmacokinetics of hGH in albumin crystal sugar truffle shell vs IV, plasma hGH by ELISA; type: in vivo, Minipigs; conditions: 0.33 mg; for Mean hGH levels: plasma, Pigs
From the text: The microparticle of albumin crystals containing hGH was then lyophilized after washing with cold isopropanol.
as §1

Substance: hGH: human growth hormone (human recombinant), given IV
- Mean hGH levels ([1]; 0 h): 18144.54 ± 1619.64 pg/mL
- AUC 0-inf_obs ([1]; 0.33 mg, Minipigs): 160.057765 ng·h/mL
- AUC 0-inf_pred ([1]; 0.33 mg, Minipigs): 158.135382 ng·h/mL
- AUC t-inf_obs ([1]; 0.33 mg, Minipigs): 5.998634 ng·h/mL
- AUC t-inf_pred ([1]; 0.33 mg, Minipigs): 4.076251 ng·h/mL
- AUC(0-t) ([1]; 0.33 mg, Minipigs): 154.059131 ng·h/mL
- AUMC 0-inf_obs ([1]; 0.33 mg, Minipigs): 1696005.242 pg/ml * h^2
- AUMC 0-inf_pred ([1]; 0.33 mg, Minipigs): 1578826.575 pg/ml * h^2
- AUMC 0-t ([1]; 0.33 mg, Minipigs): 1330359.118 pg/ml * h^2
- AUMC 0-t/0-inf_obs ([1]; 0.33 mg, Minipigs): 0.784
- AUMC 0-t/0-inf_pred ([1]; 0.33 mg, Minipigs): 0.843
- AUMC t-inf_obs ([1]; 0.33 mg, Minipigs): 365646.123 pg/ml * h^2
- AUMC t-inf_pred ([1]; 0.33 mg, Minipigs): 248467.457 pg/ml * h^2
- C0 ([1]; 0.33 mg, Minipigs): 18.14454 ng/mL
- Cl_obs ([1]; 0.33 mg, Minipigs): 0.000 (mg)/(pg/ml)/h
- Clast_obs ([1]; 0.33 mg, Minipigs): 0.46304 ng/mL
- Clast_pred ([1]; 0.33 mg, Minipigs): 0.31465 ng/mL
- Cmax ([1]; 0.33 mg, Minipigs): 22.5132 ng/mL
- Lambda_z ([1]; 0.33 mg, Minipigs): 0.077 h⁻¹
- MRT 0-inf_obs ([1]; 0.33 mg, Minipigs): 10.596 h
- MRT 0-inf_pred ([1]; 0.33 mg, Minipigs): 9.984 h
- MRT 0-t ([1]; 0.33 mg, Minipigs): 8.635 h
- Tlast ([1]; 0.33 mg, Minipigs): 48.000 h
- Tmax ([1]; 0.33 mg, Minipigs): 0.500 h
- Vss_obs ([1]; 0.33 mg, Minipigs): 0.000 (mg)/(pg/ml)
- Vz_obs ([1]; 0.33 mg, Minipigs): 0.000 (mg)/(pg/ml)
- t½ ([1]; 0.33 mg, Minipigs): 8.980 h
- Mean hGH levels ([1]; 0.08 h): 20014.87 ± 620.32 pg/mL
- Mean hGH levels ([1]; 0.5 h): 22513.2 ± 562.85 pg/mL
- Mean hGH levels ([1]; 1 h): 22130.7 ± 728.54 pg/mL
- Mean hGH levels ([1]; 4 h): 14910.13 ± 2908.87 pg/mL
- Mean hGH levels ([1]; 8 h): 1159.19 ± 226.15 pg/mL
- Mean hGH levels ([1]; 24 h): 1495.55 ± 291.77 pg/mL
- Mean hGH levels ([1]; 48 h): 463.04 ± 90.34 pg/mL
- AUC 0-inf_obs ([2]; Minipigs): 160.057765 ng·h/mL
- AUC 0-inf_pred ([2]; Minipigs): 158.135382 ng·h/mL
- AUC t-inf_obs ([2]; Minipigs): 5.998634 ng·h/mL
- AUC t-inf_pred ([2]; Minipigs): 4.076251 ng·h/mL
- AUC(0-t) ([2]; Minipigs): 154.059131 ng·h/mL
- AUMC 0-inf_obs ([2]; Minipigs): 1696005.242 pg/ml * h^2
- AUMC 0-inf_pred ([2]; Minipigs): 1578826.575 pg/ml * h^2
- AUMC 0-t ([2]; Minipigs): 1330359.118 pg/ml * h^2
- AUMC 0-t/0-inf_obs ([2]; Minipigs): 0.784
- AUMC 0-t/0-inf_pred ([2]; Minipigs): 0.843
- AUMC t-inf_obs ([2]; Minipigs): 365646.123 pg/ml * h^2
- AUMC t-inf_pred ([2]; Minipigs): 248467.457 pg/ml * h^2
- C0 ([2]; Minipigs): 18.14454 ng/mL
- Cl_obs ([2]; Minipigs): 0.000 (mg)/(pg/ml)/h
- Clast_obs ([2]; Minipigs): 0.46304 ng/mL
- Clast_pred ([2]; Minipigs): 0.31465 ng/mL
- Cmax ([2]; Minipigs): 22.5132 ng/mL
- Lambda_z ([2]; Minipigs): 0.077 h⁻¹
- MRT 0-inf_obs ([2]; Minipigs): 10.596 h
- MRT 0-inf_pred ([2]; Minipigs): 9.984 h
- MRT 0-t ([2]; Minipigs): 8.635 h
- Tlast ([2]; Minipigs): 48.000 h
- Tmax ([2]; Minipigs): 0.500 h
- Vss_obs ([2]; Minipigs): 0.000 (mg)/(pg/ml)
- Vz_obs ([2]; Minipigs): 0.000 (mg)/(pg/ml)
- t½ ([2]; Minipigs): 8.980 h
- Mean hGH levels ([2]; 0 hrs): 18144.54 ± 1619.64 pg/mL
- Mean hGH levels ([2]; 0.08 hrs): 20014.87 ± 620.32 pg/mL
- Mean hGH levels ([2]; 0.5 hrs): 22513.2 ± 562.85 pg/mL
- Mean hGH levels ([2]; 1 hrs): 22130.7 ± 728.54 pg/mL
- Mean hGH levels ([2]; 4 hrs): 14910.13 ± 2908.87 pg/mL
- Mean hGH levels ([2]; 8 hrs): 1159.19 ± 226.15 pg/mL
- Mean hGH levels ([2]; 24 hrs): 1495.55 ± 291.77 pg/mL
- Mean hGH levels ([2]; 48 hrs): 463.04 ± 90.34 pg/mL
